Reference: publication PMC12152899, “Disulfide-mediated tetramerization of TRAP1 fosters its antioxidant and pro-neoplastic activities” (Redox Biology, 2025)
Positions count from the first letter of the chain named. In names and notes the source's numbering stands.

B1: recombinant human TRAP1 C501S (natural protein, UniProt Q12931 60-704, looked up)
chain: STQTAEDKEEPLHSIISSTESVQGSTSKHEFQAETKKLLDIVARSLYSEKEVFIRELISNASDALEKLRHKLVSDGQALPEMEIHLQTNAEKGTITIQDTGIGMTQEELVSNLGTIARSGSKAFLDALQNQAEASSKIIGQFGVGFYSAFMVADRVEVYSRSAAPGSLGYQWLSDGSGVFEIAEASGVRTGTKIIIHLKSDCKEFSSEARVRDVVTKYSNFVSFPLYLNGRRMNTLQAIWMMDPKDVREWQHEEFYRYVAQAHDKPRYTLHYKTDAPLNIRSIFYVPDMKPSMFDVSRELGSSVALYSRKVLIQTKATDILPKWLRFIRGVVDSEDIPLNLSRELLQESALIRKLRDVLQQRLIKFFIDQSKKDAEKYAKFFEDYGLFMREGIVTATEQEVKEDIAKLLRYESSALPSGQLTSLSEYASRMRAGTRNIYYLSAPNRHLAEHSPYYEAMKKKDTEVLFCFEQFDELTLLHLREFDKKKLISVETDIVVDHYKEEKFEDRSPAAECLSEKETEELMAWMRNVLGSRVTNVKVTLRLDTHPAMVTVLEMGAARHFLRMQQLAKTQEERAQLLQPTLEINPRHALIKKLNQLRASEPGLAQLLVDQIYENAMIAAGLVDDPRAMVGRLNELLVKALERH
notes: Cloned in pET-26b(+); same construct as m1 with the mutation; source: E. coli BL21(DE3), purified (Ni-NTA)
B2: recombinant human TRAP1 C573R (natural protein, UniProt Q12931 60-704, looked up)
chain: B1 chain with S442C, C514R
notes: as for B1
B3: recombinant human TRAP1 C261S (natural protein, UniProt Q12931 60-704, looked up)
chain: B1 chain with C202S, S442C
notes: as for B1
B4: recombinant human TRAP1 C527A (natural protein, UniProt Q12931 60-704, looked up)
chain: B1 chain with S442C, C468A
notes: as for B1
B5: recombinant human TRAP1 C501S/C527A double mutant (natural protein, UniProt Q12931 60-704, looked up)
chain: B1 chain with C468A
notes: Cloned in pET-26b(+); same construct as m1 with the mutations; source: E. coli BL21(DE3), purified (Ni-NTA)
B6: recombinant human TRAP1 wild type, lacking the mitochondrial import sequence (natural protein, UniProt Q12931 60-704, looked up)
chain: B1 chain with S442C
notes: Cloned in pET-26b(+); Dimer by gel filtration with DTT; an additional tetramer peak after H2O2; also called WT TRAP1; TRAP1 WT; source: E. coli BL21(DE3), purified (Ni-NTA)

Molecular target: the molecule itself
Assay: non-reducing SDS-PAGE; purified recombinant TRAP1, DTT removed, 150 mM NaCl, 50 mM TRIS, pH 7.5, 37 °C, 100 μM H2O2 for 30 min (1 nM to 100 μM in Fig. 1B); disulfide-linked band above 170 kDa; Coomassie or stain-free

| Protein | binding result |
| --- | --- |
| B1 | binds |
| B2 | binds |
| B3 | binds |
| B4 | binds |
| B5 | binds |

Molecular target: the molecule itself
Assay: SEC; Superdex 200 HR 10/30, 20 mM TRIS, 150 mM NaCl, pH 7; recombinant TRAP1 incubated with 100 μM H2O2; additional peak beside the dimer; dimers to tetramer

| Protein | stoichiometry N |
| --- | --- |
| B6 | 4 |
